Legend:
cultured skin equivalent = test: Treatment of skin equivalents with other protease inhibitors for 24 h, light and electron microscopy; format: cell-based; details: SLPI 500 nM, cultured for 24 h
Method: Skin equivalent (+ and − inhibitor) is cultured with the inhibitor for 24 h. Skin equivalent are taken the preparation of histological sections. Sections are then analysed by light and electron microscopy.
SLPI (500 nM) is added to cultured skin equivalent, and cultured for 24 h. Skin equivalent (+ and − SLPI) are taken the preparation of sections. Sections are then analysed in light and electron microscopy.
SCCE antibody is added is added to cultured skin equivalent, and cultured for 24 h. Skin equivalent (+ and − SCCE antibodies) are taken the preparation of sections. Sections are then analysed in light and electron microscopy.
SCTE antibody is added is added to cultured skin equivalent, and cultured for 24 h. Skin equivalent (+ and − SCTE antibodies) are taken the preparation of sections. Sections are then analysed in light and electron microscopy.

[1] = Topical protease inhibitor in emollient cream on volunteer's arm skin for 14 days, biopsy histology; format: in vivo; details: human volunteer, emollient cream applied daily to arm for 14 days under occlusion
Source text: SPLI protease inhibitor is extracted from normal human skin of a volunteer. Alternatively, a nucleic acid sequence encoding the protease inhibitor from the individual is cloned using PCR, or library screening. The individual's protease inhibitor sequence is cloned into an expression vector, and recombinant protease inhibitor expressed and purified using conventional and known means.
The inhibitor is then formulated in an emollient cream base. Two fingertip units of this formulation are applied to an area of the volunteer's skin on the arm measuring 2×2 cm. The area is covered with a plastic capsule which is secured in place with a cotton bandage. The cream is reapplied to the same area each day for 14 consecutive days.
On day 14 the cup is removed and a 1×0.5 cm ellipse skin biopsy is taken from the treated area and a similar biopsy taken from an untreated area on the opposite arm.

Corneodesmosin = target: T1, Corneodesmosin (Homo sapiens, UniProt Q15517); test: Cleavage of adhesion proteins from human epidermis by recombinant SCCE/SCTE (immunoblot); format: biochemical; details: human epidermis protein extract incubated with active recombinant enzyme at 37 C
T1 construct: The native form of corneodesmosin has a molecular weight of between 50 and 56 kDa; from tissue; host or cells: human epidermis (TENP-40 buffer extract)
T1 sequence (Q15517 33-529): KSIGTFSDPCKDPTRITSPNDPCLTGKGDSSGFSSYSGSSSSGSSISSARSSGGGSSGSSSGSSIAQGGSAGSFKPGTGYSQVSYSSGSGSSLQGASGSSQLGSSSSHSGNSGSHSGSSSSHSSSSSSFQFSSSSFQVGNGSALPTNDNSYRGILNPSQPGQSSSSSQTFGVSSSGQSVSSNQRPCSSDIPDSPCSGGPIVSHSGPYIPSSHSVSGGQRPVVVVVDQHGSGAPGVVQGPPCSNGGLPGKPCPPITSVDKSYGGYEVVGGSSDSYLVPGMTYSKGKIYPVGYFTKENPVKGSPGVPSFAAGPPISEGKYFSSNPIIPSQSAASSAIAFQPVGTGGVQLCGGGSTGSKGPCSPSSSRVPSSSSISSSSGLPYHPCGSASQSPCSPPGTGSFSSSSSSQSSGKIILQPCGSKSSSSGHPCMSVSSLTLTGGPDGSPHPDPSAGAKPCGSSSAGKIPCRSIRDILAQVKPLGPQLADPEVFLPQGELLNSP
Method: (§1) Recombinant ProSCCE is produced and purified as described above. Recombinant ProSCCE is activated with agarose-bound trypsin, as described in Brasttsand & Egelrud, 1999.
(§2) Proteins are extracted from human epidermis in the presence of a detergent (TENP-40 buffer extract) and incubated with active SCCE for 37 C. for 4 h. The reactions are stopped by boiling for 2 mins after Laemmli's sample buffer is added. The proteins are immunoblotted with antibodies against corneodesmosomal proteins.

Desmocollin = test: as above; format: biochemical; details: human epidermis protein extract incubated with active recombinant enzyme at 37 C
Method: as §1, §2

Desmoglein = test: as above; format: biochemical; details: human epidermis protein extract incubated with active recombinant enzyme at 37 C
Method: as §1, §2

Desmoplakin = test: as above; format: biochemical; details: human epidermis protein extract incubated with active recombinant enzyme at 37 C
Method: as §1, §2

Envoplakin = target: T2, Envoplakin (Homo sapiens, UniProt Q92817); test: as above; format: biochemical; details: human epidermis protein extract incubated with active recombinant enzyme at 37 C
T2 construct: The native form of Envoplakin has a molecular weight of between 124-209 kDa; from tissue; host or cells: human epidermis (TENP-40 buffer extract)
T2 sequence (Q92817 whole entry): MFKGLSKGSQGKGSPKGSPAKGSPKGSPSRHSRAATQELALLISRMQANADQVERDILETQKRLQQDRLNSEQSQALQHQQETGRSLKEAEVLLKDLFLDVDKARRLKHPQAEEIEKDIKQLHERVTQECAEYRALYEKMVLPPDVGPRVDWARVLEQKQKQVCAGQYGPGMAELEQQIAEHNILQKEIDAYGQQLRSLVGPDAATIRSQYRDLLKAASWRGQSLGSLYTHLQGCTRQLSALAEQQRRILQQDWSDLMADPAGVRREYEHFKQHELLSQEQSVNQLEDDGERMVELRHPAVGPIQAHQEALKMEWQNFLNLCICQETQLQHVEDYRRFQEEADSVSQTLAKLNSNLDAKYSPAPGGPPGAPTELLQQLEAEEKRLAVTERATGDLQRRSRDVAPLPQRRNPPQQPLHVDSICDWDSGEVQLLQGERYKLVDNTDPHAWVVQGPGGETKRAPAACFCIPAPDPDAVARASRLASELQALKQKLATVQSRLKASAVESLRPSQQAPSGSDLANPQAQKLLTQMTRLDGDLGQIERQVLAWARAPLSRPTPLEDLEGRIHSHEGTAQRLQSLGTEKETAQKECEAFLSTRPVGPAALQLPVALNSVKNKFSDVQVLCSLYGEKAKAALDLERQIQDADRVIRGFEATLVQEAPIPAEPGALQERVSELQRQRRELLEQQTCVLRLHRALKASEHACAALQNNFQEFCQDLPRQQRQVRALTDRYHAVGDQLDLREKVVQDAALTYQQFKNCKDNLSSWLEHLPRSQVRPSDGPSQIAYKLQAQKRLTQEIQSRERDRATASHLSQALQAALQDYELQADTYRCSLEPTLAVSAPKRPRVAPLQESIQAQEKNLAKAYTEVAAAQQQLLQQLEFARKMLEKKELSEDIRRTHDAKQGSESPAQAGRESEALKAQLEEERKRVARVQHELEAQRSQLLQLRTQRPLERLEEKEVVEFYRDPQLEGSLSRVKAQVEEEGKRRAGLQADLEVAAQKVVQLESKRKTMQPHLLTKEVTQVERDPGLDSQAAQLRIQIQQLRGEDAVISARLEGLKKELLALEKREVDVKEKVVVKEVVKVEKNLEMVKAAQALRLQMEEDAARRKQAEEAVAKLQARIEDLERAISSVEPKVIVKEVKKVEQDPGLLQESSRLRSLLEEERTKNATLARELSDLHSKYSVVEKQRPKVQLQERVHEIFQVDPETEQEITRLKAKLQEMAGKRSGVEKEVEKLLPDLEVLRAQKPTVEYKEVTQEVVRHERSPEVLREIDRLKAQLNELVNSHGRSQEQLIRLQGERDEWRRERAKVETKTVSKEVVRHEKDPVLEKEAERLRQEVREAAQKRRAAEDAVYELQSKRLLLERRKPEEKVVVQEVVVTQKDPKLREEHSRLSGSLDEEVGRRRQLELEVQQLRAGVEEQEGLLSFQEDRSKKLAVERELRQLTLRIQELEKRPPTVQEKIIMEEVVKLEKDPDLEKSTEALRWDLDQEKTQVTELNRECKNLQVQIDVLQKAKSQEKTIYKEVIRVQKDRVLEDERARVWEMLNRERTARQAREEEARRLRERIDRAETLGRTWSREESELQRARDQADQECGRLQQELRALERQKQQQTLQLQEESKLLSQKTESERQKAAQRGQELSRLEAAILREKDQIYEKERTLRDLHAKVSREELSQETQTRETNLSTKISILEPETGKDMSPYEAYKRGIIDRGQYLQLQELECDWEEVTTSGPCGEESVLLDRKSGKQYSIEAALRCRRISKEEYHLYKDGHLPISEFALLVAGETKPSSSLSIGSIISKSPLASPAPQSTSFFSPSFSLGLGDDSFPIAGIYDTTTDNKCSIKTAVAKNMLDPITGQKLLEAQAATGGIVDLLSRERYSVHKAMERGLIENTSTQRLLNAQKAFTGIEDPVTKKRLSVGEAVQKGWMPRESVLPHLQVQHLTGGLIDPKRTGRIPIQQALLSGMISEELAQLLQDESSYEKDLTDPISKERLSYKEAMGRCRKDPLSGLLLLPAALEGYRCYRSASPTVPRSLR
Method: as §1, §2

Plakoglobin = target: T3, Plakoglobin (Homo sapiens, UniProt P14923); test: as above; format: biochemical; details: human epidermis protein extract incubated with active recombinant enzyme at 37 C
T3 construct: The native form of plakoglobin has a molecular weight of between 85 kDa and 75 kDa; from tissue; host or cells: human epidermis (TENP-40 buffer extract)
T3 sequence (P14923 1-745): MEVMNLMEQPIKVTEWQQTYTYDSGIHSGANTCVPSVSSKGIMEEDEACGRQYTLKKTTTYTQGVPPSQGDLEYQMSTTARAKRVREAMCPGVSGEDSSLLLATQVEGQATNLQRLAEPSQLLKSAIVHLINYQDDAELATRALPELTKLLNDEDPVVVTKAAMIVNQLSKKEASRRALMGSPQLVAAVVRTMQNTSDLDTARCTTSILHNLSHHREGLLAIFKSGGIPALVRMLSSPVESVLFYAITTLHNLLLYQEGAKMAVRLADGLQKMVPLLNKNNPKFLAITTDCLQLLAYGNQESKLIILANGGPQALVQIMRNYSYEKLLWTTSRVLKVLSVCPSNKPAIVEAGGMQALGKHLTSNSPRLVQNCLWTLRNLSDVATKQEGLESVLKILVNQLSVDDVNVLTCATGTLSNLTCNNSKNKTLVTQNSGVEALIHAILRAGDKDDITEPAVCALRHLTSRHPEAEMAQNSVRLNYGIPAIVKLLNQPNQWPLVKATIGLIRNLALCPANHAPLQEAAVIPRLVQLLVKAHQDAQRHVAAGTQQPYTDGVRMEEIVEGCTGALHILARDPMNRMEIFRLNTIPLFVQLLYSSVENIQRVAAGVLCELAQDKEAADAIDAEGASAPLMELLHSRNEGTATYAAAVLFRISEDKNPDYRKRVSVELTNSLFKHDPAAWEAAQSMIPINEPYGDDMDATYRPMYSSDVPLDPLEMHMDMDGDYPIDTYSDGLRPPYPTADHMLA
Method: as §1, §2

[2] = system: corneodesmosomes in stratum corneum tape strips; test: Treatment of tape strips from psoriatic skin with proteases, corneodesmosome density by electron microscopy; design: species or system human; details: 22-50 nM recombinant SCCE or SCTE, 1-6 h at 37° C
Method: Tape strips are obtained according to a method described by Guerrin et al, 1998.
Small pieces of tape strips from control patients along with patients suffering from the skin conditions eczema, psoriasis, dermatitis and psoriasis are fixed for 2 h at 4° C. in Karnovsky fixative (2% paraformaldehyde, 2.5% gluteraldehyde in 0.1M phosphate buffer, pH 7.4). The samples are then washed three times in 0.1M phosphate buffer (pH7.4) containing 10% sucrose for 30 minutes each at 4° C.
Secondary fixation is carried out in aqueous 2% osmium tetroxide solution for 1 hour at room temperature. Dehydration is through a graded series of ethanol at room temperature (75% ethanol for 15 minutes; 95% ethanol for 15 minutes; 2 washes of 100% ethanol for 15 minutes; 100% ethanol dried over anhydrous copper sulphate for 15 minutes).
For resin embedding, samples are first placed in the intermediate solvent, propylene oxide, for two changes of 15 minutes duration. This is followed by infiltration in a 50:50 mixture of propylene oxide:araldite resin overnight at room temperature. […]
Ultrathin sections (70-90 nm) are cut on an ultramicrotome. […] Electron micrographs are recorded on Agfa Scientific 23D56 EM film.
Corneodesmosome density (area occupied by corneodesmosomes divided by total area of micrograph) is measured on electron micrographs of tape strips of each condition. […]

B1: SLPI: Secretory Leukoprotease Inhibitor protein added to cultured skin equivalent (protein, UniProt P03973 26-132, looked up)
Antileukoproteinase: SGKSFKAGVCPPKKSAQCLRYKKPECQSDWQCPGKKRCCPDTCGIKCLDPVDTPNPTRRKPGKCPVTYGQCLMLNPPNFCEMDGQCKRDLKCCMGMCGKSCVSPVKA
effect on stratum corneum thickness and skin barrier of skin equivalent (cultured skin equivalent): increase the thickness of the stratum corneum

B2: SPLI protease inhibitor: SLPI extracted from normal human skin or recombinant, formulated in an emollient cream base (protein, UniProt P03973 26-132, looked up)
Antileukoproteinase: SGKSFKAGVCPPKKSAQCLRYKKPECQSDWQCPGKKRCCPDTCGIKCLDPVDTPNPTRRKPGKCPVTYGQCLMLNPPNFCEMDGQCKRDLKCCMGMCGKSCVSPVKA
modifications: emollient cream formulation
notes: SLPI extracted from normal human skin or recombinant, formulated in an emollient cream base
histology of stratum corneum, treated biopsy compared with control [1]: thickening of the stratum corneum with loosely adherent scales | histology of viable epidermis, treated biopsy compared with control [1]: parakeratosis and thickening

B3: SCCE: recombinant Stratum Corneum Chymotryptic Enzyme, activated with agarose-bound trypsin (protein, UniProt P49862 30-253, looked up)
Kallikrein-7: IIDGAPCARGSHPWQVALLSGNQLHCGGVLVNERWVLTAAHCKMNEYTVHLGSDTLGDRRAQRIKASKSFRHPGYSTQTHVNDLMLVKLNSQARLSSMVKKVRLPSRCEPPGTTCTVSGWGTTTSPDVTFPSDLMCVDVKLISPQDCTKVYKDLLENSMLCAGIPDSKKNACNGDSGGPLVCRGTLQGLVSWGTFPCGQPNDPGVYTQVCKFTKWINDTMKKHR
modifications: activated with trypsin
proteolysis of Corneodesmosin (Corneodesmosin): proteolysed | proteolysis of Desmocollin (Desmocollin): proteolysed | proteolysis of Desmoglein (Desmoglein): proteolysed | proteolysis of Desmoplakin (Desmoplakin): proteolysed | proteolysis of Envoplakin (Envoplakin): proteolysed | proteolysis of Plakoglobin (Plakoglobin): proteolysed | number of corneodesmosomes in treated versus untreated stratum corneum [2]: decrease significantly

Reference: patent publication US20040106120A1, “Diagnosis and treatment of disease” (priority 2000, published 2004)
